Source: patent publication US20260055141A1, “COMPOSITIONS AND METHODS FOR CONTROLLING FOOD INTAKE, ENERGY EXPENDITURE, AND BODY WEIGHT FOR THE TREATMENT OF OBESITY AND METABOLIC DISEASES” (The Trustees of the University of Pennsylvania, priority 2022, published 2026)
No end group written: not given here.

Columns and labels:
[1] = molecular target: T1, human GPR75 (372-540 aa region), His-tagged (human, UniProt O95800 372-540); test: SPR (Nicoya OpenSPR), His-tagged GPR75 on NTA sensor, one-to-one fit; curve at 123.23 µM
T1 construct: range 372-540; also called G-Protein Receptor 75; not shown: His tag
T1 sequence (O95800 372-540 limits assumed): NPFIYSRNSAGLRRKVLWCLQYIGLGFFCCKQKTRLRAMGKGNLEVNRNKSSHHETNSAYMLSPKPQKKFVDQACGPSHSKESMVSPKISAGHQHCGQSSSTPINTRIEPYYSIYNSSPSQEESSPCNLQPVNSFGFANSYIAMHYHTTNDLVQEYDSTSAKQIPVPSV

[2] = molecular target: T1, human GPR75 (372-540 aa region), …; test: SPR (Nicoya OpenSPR), His-tagged GPR75 on NTA sensor, one-to-one fit; curve at 12.3 µM
[3] = molecular target: T1, human GPR75 (372-540 aa region), …; test: SPR (Nicoya OpenSPR), His-tagged GPR75 on NTA sensor, one-to-one fit; second curve at 12.3 µM
[4] = molecular target: T1, human GPR75 (372-540 aa region), …; test: SPR (Nicoya OpenSPR), His-tagged GPR75 on NTA sensor, one-to-one fit; curve at 49.3 µM
[5] = molecular target: T1, human GPR75 (372-540 aa region), …; test: SPR (Nicoya OpenSPR), His-tagged GPR75 on NTA sensor, one-to-one fit; curve at 4.93 µM
[6] = molecular target: T1, human GPR75 (372-540 aa region), …; test: SPR (Nicoya OpenSPR), His-tagged GPR75 on NTA sensor, one-to-one fit; curve at 24.65 µM
[7] = molecular target: T1, human GPR75 (372-540 aa region), …; test: SPR (Nicoya OpenSPR), His-tagged GPR75 on NTA sensor, one-to-one fit; curve at 92.4 µM
[8] = molecular target: T1, human GPR75 (372-540 aa region), …; test: SPR (Nicoya OpenSPR), His-tagged GPR75 on NTA sensor, one-to-one fit; curve at 4.9 µM
[9] = molecular target: T1, human GPR75 (372-540 aa region), …; test: SPR (Nicoya OpenSPR), His-tagged GPR75 on NTA sensor, one-to-one fit; second curve at 49.3 µM

koff [1]: 0.0141 s⁻¹
koff [2]: 0.0141 s⁻¹
koff [3]: 0.0141 s⁻¹
koff [4]: 0.0141 s⁻¹
koff [5]: 0.0141 s⁻¹
koff [6]: 0.0141 s⁻¹
koff [7]: 0.0141 s⁻¹
koff [8]: 0.0141 s⁻¹
koff [9]: 0.0141 s⁻¹
B1: SU75-37 (peptide)
peptide: TFTSDLSKYLEEEVREFIWLKNGGPSDVNTDRPGLLDLK-NH2
notes: Synthetic, non-naturally occurring peptide; also called Drug37; SUODN37
